Results reported in patent publication US20210347868A1 (published 2021).
Like-named read-outs stand apart in the source and are kept apart here.

Key:
full-length synuclein [1] = test: ITC
full-length synuclein [2] = test: ITC; remark: listed apart in the source

B1: Asyn-338.1 (antibody, V domains shown)
VH: QVQLVESGGDIVQPGGSLKLSCAASGFTFKSYWMHWVRQVPGKGLFWVSRINTFGNKTSYADSVRGRFSISRDNTKSILYLQMNSLKAEDTAVYYCARSTLGSFDYWGQGTLVTVSS
VL: AIQLTQSPDSLAVSLGERATINCKASQSLLYSSNNRNYLAWYQQKPGQPPKALIYWASTRESGVPDRFSGSGSGTDFTLTISSLQAEDVAVYYCHQYYTTHSFGQGTKLEIK
Question: With B1 as the binder, how does the Kd (full-length synuclein [1]) read?
Answer: 300 nM

B2: Asyn-336.1 (antibody, V domains shown)
VH: EVQLVQSGGTLVQPGGSLRLSCAASGFTFSTYAISWVRQAPGRGLEWVSFITGDGSRILYADSVRGRFSISRDNSKNTLYLQMNSLRTDDTAMYYCVFNHYWGQGTLVTVSS
VL: B1 VL
Question: With B2 as the binder, how does the Kd (full-length synuclein [1]) read?
Answer: 1400 nM

B3: Asyn-323.1 (antibody, V domains shown)
VH: EVQLLESGGGLVQPGGSLKLSCAASGFTFSASAMHWVRQTSDKRLEWVGRIRNKANNYATAYAASVKGRFTISRDDSKNTAYLQMNSLKTEDTAVYYCTRHLSLGGNSVDYWGQGTPVTVSS
VL: DVVMTQSPLSSPVTLGQPASISCRASQSPVHSDGNTYLSWLQQRPGQPPRLLIYTISNRFPGVPDRFSGSGAGTDFTLRISRVEAEDVGVYYCMQGTQFPYTFGQGTKLEIK
Question: Which Kd (full-length synuclein [2]) does the source give for B3 here?
Answer: 2800 nM
